Measurements published in publication PMC11982978, “Cancer hotspot mutations rewire ERK2 specificity by selective exclusion of docking interactions” (The Journal of Biological Chemistry, 2025).
Where two headings read alike, the source gives them in different places.

Tests used:
[1] = target: Active phosphorylated His6-tagged ERK2 D319N (rat (p-0033 says mouse)) (UniProt P63086)
[2] = target: Active phosphorylated His6-tagged ERK2 WT (rat (p-0033 says mouse)) (UniProt P63086)
[3] = target: Active phosphorylated His6-tagged ERK2 R133K (rat (p-0033 says mouse)) (UniProt P63086)
[4] = target: Active phosphorylated His6-tagged ERK2 E320K (rat (p-0033 says mouse)) (UniProt P63086)
[5] = target: Active phosphorylated His6-tagged ERK2 WT (rat (p-0033 says mouse)) (UniProt P63086); remark: listed apart in the source
[6] = target: Active phosphorylated His6-tagged ERK2 R133K (rat (p-0033 says mouse)) (UniProt P63086); remark: listed apart in the source
[7] = target: Active phosphorylated His6-tagged ERK2 D319N (rat (p-0033 says mouse)) (UniProt P63086); remark: listed apart in the source
[8] = target: Active phosphorylated His6-tagged ERK2 E320K (rat (p-0033 says mouse)) (UniProt P63086); remark: listed apart in the source
[9] = target: Active phosphorylated His6-tagged ERK2 R133K (rat (p-0033 says mouse)) (UniProt P63086); remark: listed apart in the source
[10] = target: Active phosphorylated His6-tagged ERK2 WT (rat (p-0033 says mouse)) (UniProt P63086); remark: listed apart in the source
[11] = target: Active phosphorylated His6-tagged ERK2 E320K (rat (p-0033 says mouse)) (UniProt P63086); remark: listed apart in the source
[12] = target: Active phosphorylated His6-tagged ERK2 D319N (rat (p-0033 says mouse)) (UniProt P63086); remark: listed apart in the source
[13] = target: Active phosphorylated His6-tagged ERK2 WT (rat (p-0033 says mouse)) (UniProt P63086); remark: listed apart in the source
[14] = target: Active phosphorylated His6-tagged ERK2 R133K (rat (p-0033 says mouse)) (UniProt P63086); remark: listed apart in the source
[15] = target: Active phosphorylated His6-tagged ERK2 E320K (rat (p-0033 says mouse)) (UniProt P63086); remark: listed apart in the source
[16] = target: Active phosphorylated His6-tagged ERK2 WT (rat (p-0033 says mouse)) (UniProt P63086); remark: listed apart in the source
[17] = target: Active phosphorylated His6-tagged ERK2 R133K (rat (p-0033 says mouse)) (UniProt P63086); remark: listed apart in the source
[18] = target: Active phosphorylated His6-tagged ERK2 D319N (rat (p-0033 says mouse)) (UniProt P63086); remark: listed apart in the source
[19] = target: Active phosphorylated His6-tagged ERK2 WT (rat (p-0033 says mouse)) (UniProt P63086); remark: listed apart in the source
[20] = target: Active phosphorylated His6-tagged ERK2 D319N (rat (p-0033 says mouse)) (UniProt P63086); remark: listed apart in the source
[21] = target: Active phosphorylated His6-tagged ERK2 E320K (rat (p-0033 says mouse)) (UniProt P63086); remark: listed apart in the source
[22] = target: Active phosphorylated His6-tagged ERK2 R133K (rat (p-0033 says mouse)) (UniProt P63086); remark: listed apart in the source
[23] = target: Active phosphorylated His6-tagged ERK2 E320K (rat (p-0033 says mouse)) (UniProt P63086); remark: listed apart in the source
[24] = target: Active phosphorylated His6-tagged ERK2 R133K (rat (p-0033 says mouse)) (UniProt P63086); remark: listed apart in the source
[25] = target: Active phosphorylated His6-tagged ERK2 D319N (rat (p-0033 says mouse)) (UniProt P63086); remark: listed apart in the source
[26] = target: Active phosphorylated His6-tagged ERK2 WT (rat (p-0033 says mouse)) (UniProt P63086); remark: listed apart in the source

Substance: AEBP1
- IC50 [1]: 120 µM
- IC50 [2]: 16 µM
- IC50 [3]: 110 µM
- IC50 [4]: 160 µM

Substance: ANAPC5
- IC50 [5]: 32 µM
- IC50 [6]: 340 µM

Substance: CBX7
- IC50 [7]: 9.8 µM
- IC50 [8]: 14 µM
- IC50 [9]: 5.7 µM
- IC50 [10]: 5.1 µM

Substance: DISC1
- IC50 [11]: 110 µM
- IC50 [12]: 79 µM
- IC50 [13]: 23 µM
- IC50 [14]: 74 µM

Substance: ELMSAN1
- IC50 [15]: 40 µM
- IC50 [16]: 24 µM
- IC50 [17]: 27 µM
- IC50 [18]: 30 µM

Substance: MLXIPL
- IC50 [19]: 18 µM
- IC50 [20]: 26 µM
- IC50 [21]: 28 µM
- IC50 [22]: 23 µM

Substance: ZBED6
- IC50 [23]: 56 µM
- IC50 [24]: 6.2 µM
- IC50 [25]: 23 µM
- IC50 [26]: 6.8 µM
